Laboratory results as given in paper PMC9482650, “Quantitative fragmentomics allow affinity mapping of interactomes” (Nature Communications, 2022).

T1: PDLIM3, Q53GG5
T1 sequence (Q53GG5 1-94, limits assumed, looked up): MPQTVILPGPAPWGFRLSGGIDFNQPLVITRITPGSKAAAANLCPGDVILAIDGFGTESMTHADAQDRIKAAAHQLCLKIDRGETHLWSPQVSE

T2: APBA3_2, O96018
T2 sequence (O96018 480-570, limits assumed, looked up): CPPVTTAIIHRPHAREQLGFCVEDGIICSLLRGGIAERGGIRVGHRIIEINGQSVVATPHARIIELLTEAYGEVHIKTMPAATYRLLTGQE

T3: NHERF1_1, O14745
T3 sequence (O14745 9-104, limits assumed, looked up): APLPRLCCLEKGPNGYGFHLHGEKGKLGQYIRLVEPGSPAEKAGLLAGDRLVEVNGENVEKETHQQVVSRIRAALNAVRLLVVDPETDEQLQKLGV

T4: SHANK2, Q9UPX8
T4 sequence (Q9UPX8 621-730, limits assumed, looked up): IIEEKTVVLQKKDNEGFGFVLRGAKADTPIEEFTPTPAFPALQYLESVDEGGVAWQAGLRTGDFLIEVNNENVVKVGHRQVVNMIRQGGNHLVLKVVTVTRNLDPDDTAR

T5: PDZD4, Q76G19
T5 sequence (Q76G19 125-224, limits assumed, looked up): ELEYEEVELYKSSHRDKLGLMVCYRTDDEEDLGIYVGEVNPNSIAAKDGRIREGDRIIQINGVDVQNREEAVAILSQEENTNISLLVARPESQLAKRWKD

T6: TJP3_2, O95049
T6 sequence (O95049 190-282, limits assumed, looked up): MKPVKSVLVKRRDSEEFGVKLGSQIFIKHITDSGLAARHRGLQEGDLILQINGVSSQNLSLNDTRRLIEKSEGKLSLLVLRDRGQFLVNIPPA

T7: PREX2_2, Q70Z35
T7 sequence (Q70Z35 672-764, limits assumed, looked up): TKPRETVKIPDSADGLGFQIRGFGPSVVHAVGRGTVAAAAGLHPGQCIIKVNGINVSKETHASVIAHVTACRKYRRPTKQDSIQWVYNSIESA

T8: PARD6G, Q9BYG4
T8 sequence (Q9BYG4 153-261, limits assumed, looked up): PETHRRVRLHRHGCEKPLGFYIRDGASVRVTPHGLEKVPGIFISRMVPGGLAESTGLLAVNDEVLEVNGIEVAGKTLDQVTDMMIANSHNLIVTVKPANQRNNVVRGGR

T9: MPDZ_6, O75970
T9 sequence (O75970 1003-1099, limits assumed, looked up): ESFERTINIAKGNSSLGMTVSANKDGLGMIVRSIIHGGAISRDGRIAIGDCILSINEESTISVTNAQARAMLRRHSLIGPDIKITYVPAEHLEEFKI

T10: PDZD7_2, Q9H5P4
T10 sequence (Q9H5P4 205-303, limits assumed, looked up): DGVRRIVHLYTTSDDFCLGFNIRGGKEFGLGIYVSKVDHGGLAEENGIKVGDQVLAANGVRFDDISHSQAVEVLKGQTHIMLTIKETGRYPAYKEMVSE


Experiments:
Experiment in all cases: holdup assay
Design in all cases: key: below the threshold = too weak to quantify, mostly under pKd 3.1 to 4
Conditions in all cases: plain residues with an end cap or a label only (N-terminal biotin on a linker: ttds)
Q92614 = molecular target: Q92614
PDLIM3, Q53GG5 = molecular target: T1, PDLIM3, Q53GG5
RIMS2, Q9UQ26 = molecular target: RIMS2, Q9UQ26
Chain of RIMS2, Q9UQ26 (Q9UQ26 637-758): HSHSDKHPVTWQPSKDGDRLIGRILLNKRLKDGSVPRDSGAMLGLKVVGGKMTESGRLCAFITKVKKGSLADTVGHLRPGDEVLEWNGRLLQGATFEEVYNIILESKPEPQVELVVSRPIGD

APBA3_2, O96018 = molecular target: T2, APBA3_2, O96018
NHERF1_1, O14745 = molecular target: T3, NHERF1_1, O14745
RGS3, P49796-9 = molecular target: RGS3, P49796-9
Chain of RGS3, P49796-9 (P49796 other isoform, or with tags, fused parts or gaps): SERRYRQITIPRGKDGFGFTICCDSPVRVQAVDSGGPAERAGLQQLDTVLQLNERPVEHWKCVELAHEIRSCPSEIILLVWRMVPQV

O75970 = molecular target: O75970
GRIP2_2, Q9C0E4 = molecular target: GRIP2_2, Q9C0E4
Chain of GRIP2_2, Q9C0E4 (Q9C0E4 137-245): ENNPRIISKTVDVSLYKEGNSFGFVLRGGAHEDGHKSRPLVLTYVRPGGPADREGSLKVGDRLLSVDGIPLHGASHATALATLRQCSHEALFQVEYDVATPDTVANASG

RIMS1, Q86UR5 = molecular target: RIMS1, Q86UR5
Chain of RIMS1, Q86UR5 (Q86UR5 584-692): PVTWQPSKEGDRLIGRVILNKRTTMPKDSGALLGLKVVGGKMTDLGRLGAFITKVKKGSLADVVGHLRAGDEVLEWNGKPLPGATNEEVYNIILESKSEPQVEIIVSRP

Q12923 = molecular target: Q12923
Q96JY6 = molecular target: Q96JY6
Q13009 = molecular target: Q13009
O00233 = molecular target: O00233
Q96HC4 = molecular target: Q96HC4
MAGI1_6, Q96QZ7 = molecular target: MAGI1_6, Q96QZ7
Chain of MAGI1_6, Q96QZ7 (Q96QZ7 1146-1238): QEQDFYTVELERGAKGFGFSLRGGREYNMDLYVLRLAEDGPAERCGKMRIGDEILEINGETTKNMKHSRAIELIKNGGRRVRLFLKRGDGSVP

SHANK2, Q9UPX8 = molecular target: T4, SHANK2, Q9UPX8
PDZD4, Q76G19 = molecular target: T5, PDZD4, Q76G19
TJP3_2, O95049 = molecular target: T6, TJP3_2, O95049
O60759 = molecular target: O60759
PREX2_2, Q70Z35 = molecular target: T7, PREX2_2, Q70Z35
Q96SB3 = molecular target: Q96SB3
PARD6G, Q9BYG4 = molecular target: T8, PARD6G, Q9BYG4
MPDZ_6, O75970 = molecular target: T9, MPDZ_6, O75970
PTPN13_2, Q12923 = molecular target: PTPN13_2, Q12923
Chain of PTPN13_2, Q12923 (Q12923 1363-1462): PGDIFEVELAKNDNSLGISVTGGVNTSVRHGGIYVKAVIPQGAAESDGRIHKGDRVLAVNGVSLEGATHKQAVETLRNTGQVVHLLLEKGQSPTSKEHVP

Q8IUC4 = molecular target: Q8IUC4
PDZD7_2, Q9H5P4 = molecular target: T10, PDZD7_2, Q9H5P4
Q9Y3R0 = molecular target: Q9Y3R0
Q5TCQ9 = molecular target: Q5TCQ9

pKd (Q92614) | pKd (PDLIM3, Q53GG5) | pKd (RIMS2, Q9UQ26) | pKd (APBA3_2, O96018) | pKd (NHERF1_1, O14745) | pKd (RGS3, P49796-9) | pKd (O75970) | pKd (GRIP2_2, Q9C0E4) | pKd (RIMS1, Q86UR5) | pKd (Q12923) | pKd (Q96JY6) | pKd (Q13009) | pKd (O00233) | pKd (Q96HC4) | pKd (MAGI1_6, Q96QZ7) | pKd (SHANK2, Q9UPX8) | pKd (PDZD4, Q76G19) | pKd (TJP3_2, O95049) | pKd (O60759) | pKd (PREX2_2, Q70Z35) | Binder | further results
below the threshold | below the threshold | below the threshold | below the threshold | below the threshold | below the threshold | below the threshold | below the threshold | below the threshold | below the threshold | below the threshold | below the threshold | below the threshold | below the threshold | below the threshold | below the threshold | 4.21 | below the threshold | below the threshold | below the threshold | QPGTPTRTAV [MAP2K2, P36507] | pKd (Q96SB3): below the threshold; pKd (PARD6G, Q9BYG4): below the threshold; pKd (MPDZ_6, O75970): below the threshold; pKd (PTPN13_2, Q12923): below the threshold; pKd (Q8IUC4): below the threshold; pKd (PDZD7_2, Q9H5P4): below the threshold; pKd (Q9Y3R0): below the threshold; pKd (Q5TCQ9): below the threshold
below the threshold | below the threshold | below the threshold | 4.74 | below the threshold | below the threshold | below the threshold | below the threshold | below the threshold | below the threshold | below the threshold | below the threshold | below the threshold | below the threshold | 4.35 | below the threshold | below the threshold | below the threshold | below the threshold | below the threshold | IQREDQETAV [DGKZ, Q13574] | pKd (Q96SB3): below the threshold; pKd (PARD6G, Q9BYG4): below the threshold; pKd (MPDZ_6, O75970): below the threshold; pKd (PTPN13_2, Q12923): below the threshold; pKd (Q8IUC4): below the threshold; pKd (PDZD7_2, Q9H5P4): below the threshold; pKd (Q9Y3R0): below the threshold; pKd (Q5TCQ9): below the threshold
below the threshold | below the threshold | below the threshold | below the threshold | below the threshold | below the threshold | below the threshold | below the threshold | below the threshold | below the threshold | below the threshold | below the threshold | below the threshold | below the threshold | 4.55 | below the threshold | below the threshold | below the threshold | below the threshold | below the threshold | CLDTSRETDL [KCNA5, P22460] | pKd (Q96SB3): below the threshold; pKd (PARD6G, Q9BYG4): below the threshold; pKd (MPDZ_6, O75970): below the threshold; pKd (PTPN13_2, Q12923): below the threshold; pKd (Q8IUC4): below the threshold; pKd (PDZD7_2, Q9H5P4): below the threshold; pKd (Q9Y3R0): below the threshold; pKd (Q5TCQ9): below the threshold
below the threshold | below the threshold | below the threshold | below the threshold | below the threshold | below the threshold | below the threshold | below the threshold | below the threshold | below the threshold | below the threshold | below the threshold | below the threshold | below the threshold | 4.33 | below the threshold | below the threshold | below the threshold | below the threshold | 4.17 | MERLRVETDV [ARHGEF16, Q5VV41] | pKd (Q96SB3): below the threshold; pKd (PARD6G, Q9BYG4): below the threshold; pKd (MPDZ_6, O75970): below the threshold; pKd (PTPN13_2, Q12923): below the threshold; pKd (Q8IUC4): below the threshold; pKd (PDZD7_2, Q9H5P4): 4.24; pKd (Q9Y3R0): below the threshold; pKd (Q5TCQ9): below the threshold
below the threshold | below the threshold | below the threshold | below the threshold | below the threshold | below the threshold | below the threshold | below the threshold | below the threshold | below the threshold | below the threshold | below the threshold | below the threshold | below the threshold | below the threshold | 4.64 | below the threshold | below the threshold | below the threshold | below the threshold | NYWPGKETQL [SLCO1C1, Q9NYB5] | pKd (Q96SB3): below the threshold; pKd (PARD6G, Q9BYG4): below the threshold; pKd (MPDZ_6, O75970): below the threshold; pKd (PTPN13_2, Q12923): below the threshold; pKd (Q8IUC4): below the threshold; pKd (PDZD7_2, Q9H5P4): below the threshold; pKd (Q9Y3R0): below the threshold; pKd (Q5TCQ9): below the threshold
